Experimental data as given in publication PMC6709672 (Nature, 2019).
Where two headings read alike, the source gives them in different places.

Tests used:
[1] = target: T1, mouse Smoothened (SMO) residues 64-566, crystallization construct (Mus musculus, UniProt P56726); assay: SPR
[2] = target: T1, mouse Smoothened (SMO) residues 64-566, …; assay: SPR; remark: listed apart in the source

T1 sequence (P56726 64-566): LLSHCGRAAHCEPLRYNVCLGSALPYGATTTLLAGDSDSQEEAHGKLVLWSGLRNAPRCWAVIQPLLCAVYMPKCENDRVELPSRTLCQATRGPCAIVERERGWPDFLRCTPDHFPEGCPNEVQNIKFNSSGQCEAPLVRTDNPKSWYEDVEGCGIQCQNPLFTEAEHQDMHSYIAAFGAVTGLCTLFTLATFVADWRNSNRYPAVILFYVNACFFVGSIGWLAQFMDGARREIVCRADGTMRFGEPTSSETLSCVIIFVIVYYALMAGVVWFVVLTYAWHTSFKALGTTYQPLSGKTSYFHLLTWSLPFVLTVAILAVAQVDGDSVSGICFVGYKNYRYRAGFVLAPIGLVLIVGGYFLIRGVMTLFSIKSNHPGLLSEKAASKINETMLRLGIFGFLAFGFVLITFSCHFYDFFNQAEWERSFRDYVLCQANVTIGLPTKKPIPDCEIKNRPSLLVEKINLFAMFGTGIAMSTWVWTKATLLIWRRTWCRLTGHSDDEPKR

Kd [1]: 168 nM | Kd [2]: 117 nM
B1: NbSmo8 with a C-terminal hexahistidine tag (VHH)
VHH: QVQLQESGGGLVQAGGSLRLSCAASGYIFSSYAMGWYRQAPGKEREFVATIGWGTITYYADSVKGRFTISRDNAKNTVYLQMNSLKPEDTAVYYCAAQDLLYYSFPGDHAYWGQGTQVTVSS
